Source: US20200199241A1 (Chugai, published 2020)
Substitutions are numbered along the chain they refer to.

B1: IgG1-F1131 (antibody)
heavy: QVQLQESGPGLVKPSETLSLTCAVSGHSISHDHAWSWVRQPPGEGLEWIGFISYSGITNYNPSLQGRVTISRDNSKNTLYLQMNSLRAEDTAVYYCARSLARTTAMDYWGEGTLVTVSSASTKGPSVFPLAPSSKSTSGGTAALGCLVKDYFPEPVTVSWNSGALTSGVHTFPAVLQSSGLYSLSSVVTVPSSSLGTQTYICNVNHKPSNTKVDKKVEPKSCDKTHTCPPCPAPELRGGPKVFLFPPKPKDTLYISRTPEVTCVVVDVSHEDPEVKFNWYVDGVEVHNAKTKPREEQYNSTYRVVSVLTVLHQDWLNGKEYKCKVSNKALPAPIEKTISKAKGQPREPQVYTLPPSRDELTKNQVSLTCLVKGFYPSDIAVEWESNGQPENNYKTTPPVLDSDGSFFLYSKLTVDKSRWQQGNEFSCSVMHEALHYHVTQKSLSLSP
light: not shown
notes: EU numbering; copies: 2 + 2
B2: IgG1-F1188 (antibody)
heavy: B1 heavy with R237L, K241S, Y254M, T309A, E382A, E424V, Y436H, V438Y
light: not shown
notes: EU numbering; copies: 2 + 2
B3: IgG1-F1178 (antibody)
heavy: B1 heavy with R237L, K241S, Y254M, V261I, V310F, E424V, M430L, Y436N, V438Y
light: not shown
notes: EU numbering; copies: 2 + 2
B4: IgG1-F1148 (antibody)
heavy: B1 heavy with T309Q, Q313A, E424V, V438Y, Q440R, S442E
light: not shown
notes: EU numbering; copies: 2 + 2
B5: IgG1-F1152 (antibody)
heavy: B1 heavy with T309Q, Q313A, E424V, S426N, V438Y
light: not shown
notes: EU numbering; copies: 2 + 2
B6: IgG1-F1151 (antibody)
heavy: B1 heavy with E424V, S426N, V438Y
light: not shown
notes: EU numbering; copies: 2 + 2
B7: IgG1-F1195 (antibody)
heavy: B1 heavy with R237L, K241S, E424V, Q440R, S442E, L443A
light: not shown
notes: EU numbering; copies: 2 + 2
B8: IgG1-F1139 (antibody)
heavy: B1 heavy with E424V, S426N
light: not shown
notes: EU numbering; copies: 2 + 2
B9: IgG1-F1158 (antibody)
heavy: B1 heavy with E424V, V438Y, Q440R, S442E
light: not shown
notes: EU numbering; copies: 2 + 2
B10: IgG1-F1146 (antibody)
heavy: B1 heavy with T252V, T309Q, Q313A, E424V, Q440R, S442E
light: not shown
notes: EU numbering; copies: 2 + 2
B11: IgG1-F1153 (antibody)
heavy: B1 heavy with T252V, T309Q, Q313A, E424V, S426N
light: not shown
notes: EU numbering; copies: 2 + 2
B12: IgG1-F1165 (antibody)
heavy: B1 heavy with R237L, P240D, K241S, T252Y, T309Q, V310P, Q313A, E424V
light: not shown
notes: EU numbering; copies: 2 + 2
B13: IgG1-F1140 (antibody)
heavy: B1 heavy with R237L, K241S, S426R, Q440R, S442E
light: not shown
notes: EU numbering; copies: 2 + 2
B14: IgG1-F1144 (antibody)
heavy: B1 heavy with T252V, T309Q, V310P, Q313A, E424V, Q440R, S442E
light: not shown
notes: EU numbering; copies: 2 + 2
B15: IgG1-F1198 (antibody)
heavy: B1 heavy with R237L, K241S, T258E, E424V, Q440R, S442E
light: not shown
notes: EU numbering; copies: 2 + 2
B16: IgG1-F1145 (antibody)
heavy: B1 heavy with R237L, K241S, T252V, T309Q, Q313A, E424V, Q440R, S442E
light: not shown
notes: EU numbering; copies: 2 + 2
B17: IgG1-F1157 (antibody)
heavy: B1 heavy with R237L, K241S, E424V, V438Y, Q440R, S442E
light: not shown
notes: EU numbering; copies: 2 + 2
B18: IgG1-F1143 (antibody)
heavy: B1 heavy with E424S, S426R, Q440R, S442E
light: not shown
notes: EU numbering; copies: 2 + 2
B19: IgG1-F1138 (antibody)
heavy: B1 heavy with E424V, Q440R, S442E
light: not shown
notes: EU numbering; copies: 2 + 2
B20: IgG1-F1164 (antibody)
heavy: B1 heavy with R237L, P240D, K241S, T252Y, T309Q, Q313A, E424V
light: not shown
notes: EU numbering; copies: 2 + 2
B21: IgG1-F1190 (antibody)
heavy: B1 heavy with R237L, K241S, E424V, H435E, Q440R, S442E
light: not shown
notes: EU numbering; copies: 2 + 2
B22: IgG1-F1133 (antibody)
heavy: B1 heavy with E424V, S426R
light: not shown
notes: EU numbering; copies: 2 + 2
B23: IgG1-F1132 (antibody)
heavy: B1 heavy with E424S
light: not shown
notes: EU numbering; copies: 2 + 2
B24: IgG1-F1142 (antibody)
heavy: B1 heavy with S426R, Q440R, S442E
light: not shown
notes: EU numbering; copies: 2 + 2
B25: IgG1-F1191 (antibody)
heavy: B1 heavy with R237L, K241S, E424V, T439A, Q440R, S442E
light: not shown
notes: EU numbering; copies: 2 + 2
B26: IgG1-F1194 (antibody)
heavy: B1 heavy with R237L, K241S, E424V, Q440R, K441D, S442E
light: not shown
notes: EU numbering; copies: 2 + 2
B27: IgG1-F1162 (antibody)
heavy: B1 heavy with R237L, P240D, K241S, T252Y, E424V
light: not shown
notes: EU numbering; copies: 2 + 2
B28: IgG1-F1135 (antibody)
heavy: B1 heavy with E424V, S442E
light: not shown
notes: EU numbering; copies: 2 + 2
B29: IgG1-F1161 (antibody)
heavy: B1 heavy with R237L, K241S, Y254M, I334V, E424V, S426N, V438Y
light: not shown
notes: EU numbering; copies: 2 + 2
B30: IgG1-F1134 (antibody)
heavy: B1 heavy with E424V, Q440R
light: not shown
notes: EU numbering; copies: 2 + 2
B31: IgG1-F1197 (antibody)
heavy: B1 heavy with R237L, K241S, S256T, E424V, Q440R, S442E
light: not shown
notes: EU numbering; copies: 2 + 2
B32: IgG1-F1137 (antibody)
heavy: B1 heavy with E424S, S426R
light: not shown
notes: EU numbering; copies: 2 + 2
B33: IgG1-F1183 (antibody)
heavy: B1 heavy with R237L, K241S, Y254M, E382A, E424V, M430L, Y436S, V438Y
light: not shown
notes: EU numbering; copies: 2 + 2
B34: IgG1-F1141 (antibody)
heavy: B1 heavy with R237L, K241S, E424S, S426R, Q440R, S442E
light: not shown
notes: EU numbering; copies: 2 + 2
B35: IgG1-F1196 (antibody)
heavy: B1 heavy with R237L, K241S, E424V, Q440R, S442E, L443E
light: not shown
notes: EU numbering; copies: 2 + 2
B36: IgG1-F1160 (antibody)
heavy: B1 heavy with R237L, K241S, Y254M, V310F, E424V, S426N, V438Y
light: not shown
notes: EU numbering; copies: 2 + 2
B37: IgG1-F1147 (antibody)
heavy: B1 heavy with R237L, K241S, T309Q, Q313A, E424V, V438Y, Q440R, S442E
light: not shown
notes: EU numbering; copies: 2 + 2
B38: IgG1-F1163 (antibody)
heavy: B1 heavy with R237L, P240D, K241S, T252Y, T309Q, Q313A, E424V, V438Y
light: not shown
notes: EU numbering; copies: 2 + 2
B39: IgG1-F1136 (antibody)
heavy: B1 heavy with S426R
light: not shown
notes: EU numbering; copies: 2 + 2
B40: IgG1-F1154 (antibody)
heavy: B1 heavy with T252V, T309Q, V310P, Q313A, E424V, S426N
light: not shown
notes: EU numbering; copies: 2 + 2
B41: IgG1-F1185 (antibody)
heavy: B1 heavy with R237L, K241S, Y254M, T309A, E382A, E424V, M430L, Y436S, V438Y
light: not shown
notes: EU numbering; copies: 2 + 2
B42: IgG1-F1184 (antibody)
heavy: B1 heavy with R237L, K241S, Y254M, T309A, E424V, M430L, Y436S, V438Y
light: not shown
notes: EU numbering; copies: 2 + 2

biological target: T1, soluble human FcRn complexed with β2-microglobulin (human, UniProt P61769 21-119, limits assumed); assay: Biacore SPR, pH 7.0;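 also: test antibodies captured on a Protein L chip with human FcRn flowed over as analyte, KD obtained as the ratio of dissociation to association rate constants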
T1 construct: also called hFcRn

Row | Kd [nM] | Binder
1 | 129 | B1
2 | 1720 | B2
3 | 872 | B3
4 | 76.3 | B4
5 | 73.8 | B5
6 | 251 | B6
7 | 176 | B7
8 | 152 | B8
9 | 244 | B9
10 | 62.4 | B10
11 | 48.5 | B11
12 | 16.3 | B12
13 | 162 | B13
14 | 14.4 | B14
15 | 78.3 | B15
16 | 52.3 | B16
17 | 209 | B17
18 | 198 | B18
19 | 165 | B19
20 | 69.6 | B20
21 | 240 | B21

Row | Kd [nM] | Binder
22 | 158 | B22
23 | 140 | B23
24 | 187 | B24
25 | 211 | B25
26 | 155 | B26
27 | 343 | B27
28 | 126 | B28
29 | 1070 | B29
30 | 166 | B30
31 | 94.6 | B31
32 | 158 | B32
33 | 1280 | B33
34 | 177 | B34
35 | 151 | B35
36 | 288 | B36
37 | 71.9 | B37
38 | 154 | B38
39 | 163 | B39
40 | 13.4 | B40
41 | 917 | B41
42 | 1000 | B42
